This note sets out measurements from patent US7507555B2, “Probe for detecting and quantifying lipid second messenger and method of detecting and quantifying lipid second messenger using the same” (Japan Science and Technology Agency, priority 2003, dated 2009).

One assay deals with PDGFR. Description: Effect of PTP1B overexpression on PDGF-stimulated PIP3 increase in CHO-PDGFR cells. Type of assay: cell-based, Chinese hamster. As to conditions: PTP1B overexpressed. The text has this: For further dissecting the PIP3 dynamics in the endomembranes, protein tyrosine phosphatase-1B (PTP1B) was overexpressed in CHO-PDGFR cells by adenovirus-mediated gene transfer. The PTP1B is localized exclusively on the cytoplasmic surface of the ER (Frangioni, J. V., Beaham, P. H., Shifrin, V., Jost, C. A. and Neel, B. G. (1992) Cell, 68, 545-560). It has recently been reported that upon ligand stimulations, receptor tyrosine kinases, including PDGFR, are dephosphorylated and inactivated by the PTP1B on the cytoplasmic surface of the ER after the receptors activated at the cell surface were internalized by endocytosis (Haj, F. G., Verveer, P. J., Squire, A., Neel, B. G. and Bastiaens, P. I. H. (2002), Science, 295, 1708-1711).
The inventors expected the overexpressed PTP1B to selectively dephosphorylate the endocytosed PDGFR and to inhibit the recruitment and activation of PI3K by the PDGFR on the cytoplasmic surface of ER, without affecting the PDCFR in the plasma membrane.

In assay [1] the test system is clathrin-mediated endocytosis of PDGFR. Briefly: Effect of DynK44A expression on PIP3 increase in CHO-PDGFR cells. Type of assay: cell-based, Chinese hamster. As to the method: To explore the molecular mechanism, which underlies the PIP3 increase in the endomembranes, the effect on the PIP3 increase of a dominant-negative mutant of dynamin (DynK44A), in which the lysine 44 is substituted by an alanine, was assessed.
The dynamin is a guanosine triphosphatase (GTPase) that controls the clathrin-mediated endocytosis (Qualmann, B., Kessels, M. M. and Kelly, R. B. (2000) J. Cell Biol., 150, F111-F116) of receptor tyrosine kinases, including PDGFR. DynK44A lacks the GTPase activity and inhibits a clathrin-mediated endocytosis of PDGFR.
The DynK44A was expressed in CHO-PDCFR cells by adenovirus-mediated gene transfer, the cells were stimulated with PDGF (50 ng/mL) and time course of CFP/YFP in endomembranes was measured as shown in FIG. 11. […] On the other hand, in the plasma membrane, the FRET response of Fllip-pm was immediately observed upon PDGF stimulation even in the presence of the DynK44A expression, as observed in the absence of the DynK44A expression (FIG. 12).

B1: PTP1B: protein tyrosine phosphatase-1B, overexpressed by adenovirus-mediated gene transfer (protein, UniProt P18031 1-435, looked up)
Tyrosine-protein phosphatase …: MEMEKEFEQIDKSGSWAAIYQDIRHEASDFPCRVAKLPKNKNRNRYRDVSPFDHSRIKLHQEDNDYINASLIKMEEAQRSYILTQGPLPNTCGHFWEMVWEQKSRGVVMLNRVMEKGSLKCAQYWPQKEEKEMIFEDTNLKLTLISEDIKSYYTVRQLELENLTTQETREILHFHYTTWPDFGVPESPASFLNFLFKVRESGSLSPEHGPVVVHCSAGIGRSGTFCLADTCLLLMDKRKDPSSVDIKKVLLEMRKFRMGLIQTADQLRFSYLAVIEGAKFIMGDSSVQDQWKELSHEDLEPPPEHIPPPPRPPKRILEPHNGKCREFFPNHQWVKEETQEDKDCPIKEEKGSPLNAAPYGIESMSQDTEVRSRVVGGSLRGAQAASPAKGEPSLPEKDEDHALSYWKPFLVNMCVATVLTAGAYLCYRFLFNSNT
Regarding B1, the “PDGF-stimulated PIP3 increase in endomembranes” value in the assay on PDGFR (Fllip-em, PDGF 50 ng/mL) is “completely lost”. Also, the “PIP3 increase in the plasma membrane upon PDGF stimulation” value with PDGFR (monitored with Fllip-pm) was “not affected”.

B2: DynK44A: dominant-negative mutant of dynamin in which the lysine 44 is substituted by an alanine (protein, UniProt Q05193 1-864, looked up, variant K44A)
Dynamin-1: MGNRGMEDLIPLVNRLQDAFSAIGQNADLDLPQIAVVGGQSAGASSVLENFVGRDFLPRGSGIVTRRPLVLQLVNATTEYAEFLHCKGKKFTDFEEVRLEIEAETDRVTGTNKGISPVPINLRVYSPHVLNLTLVDLPGMTKVPVGDQPPDIEFQIRDMLMQFVTKENCLILAVSPANSDLANSDALKVAKEVDPQGQRTIGVITKLDLMDEGTDARDVLENKLLPLRRGYIGVVNRSQKDIDGKKDITAALAAERKFFLSHPSYRHLADRMGTPYLQKVLNQQLTNHIRDTLPGLRNKLQSQLLSIEKEVEEYKNFRPDDPARKTKALLQMVQQFAVDFEKRIEGSGDQIDTYELSGGARINRIFHERFPFELVKMEFDEKELRREISYAIKNIHGIRTGLFTPDMAFETIVKKQVKKIREPCLKCVDMVISELISTVRQCTKKLQQYPRLREEMERIVTTHIREREGRTKEQVMLLIDIELAYMNTNHEDFIGFANAQQRSNQMNKKKTSGNQDEILVIRKGWLTINNIGIMKGGSKEYWFVLTAENLSWYKDDEEKEKKYMLSVDNLKLRDVEKGFMSSKHIFALFNTEQRNVYKDYRQLELACETQEEVDSWKASFLRAGVYPERVGDKEKASETEENGSDSFMHSMDPQLERQVETIRNLVDSYMAIVNKTVRDLMPKTIMHLMINNTKEFIFSELLANLYSCGDQNTLMEESAEQAQRRDEMLRMYHALKEALSIIGDINTTTVSTPMPPPVDDSWLQVQSVPAGRRSPTSSPTPQRRAPAVPPARPGSRGPAPGPPPAGSALGGAPPVPSRPGASPDPFGPPPQVPSRPNRAPPGVPSRSGQASPSRPESPRPPFDL
Regarding B2, in assay [1] (DynK44A overexpression), the “PIP3 increase in the endomembranes by insulin and epidermal growth factor” value was “inhibited”. Besides, the “PDGF-stimulated PIP3 increase in the endomembranes” value in assay [1] (overexpression of DynK44A, PDGF 50 ng/mL) is “completely inhibited”. In addition, the “PDGF-stimulated PIP3 increase in the plasma membrane” value in assay [1] (overexpression of DynK44A, PDGF 50 ng/mL, Fllip-pm) was “not affected”.
